From the nanobody polyreactivity screen of Harvey et al. (2022)

assay: yeast display, Sf9 membrane polyspecificity reagent, FACS + sequencing; frameworks hold sequencing errors
Summary of the method: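 Synthetic nanobody libraries on Saccharomyces cerevisiae BJ5465 were galactose-induced for 36–48 hours, stained 1 hour at 4 °C with 10% biotinylated, detergent-solubilized Sf9 membrane reagent and enriched on streptavidin microbeads. FACS then separated cells into low and high (top ~1%) gates by anti-HA (expression) and streptavidin (reagent binding) fluorescence. Genes were colony-PCR amplified, MiSeq 2 × 250 sequenced and CDR-length filtered. A clone's polyreactivity label is that of its gate of origin.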

Sequence	polyreactivity (PSR sort gate)
QVQLVESGGCLVQAGGTLRLSCAASGSILNSYALGWYRQAPGKERELVAAIDNRGGSTHYADSVKGRFTISRDNAKNTVYLQMNSLKPEDTAVYYCAKRFYGSVGYWRYYYWGQGTQVTVSS	low polyreactivity
QVQLVESGGCLVQAGVSLRLSCAASGSIFSPYAMGWYRQAPGKEREFVASITFNGGSTYYADSVKGRFTISRDNAKNTVYLQMNSLKPEDTAVYYCAASYWYDTYWLMDYWGQGPQVTVSS	high polyreactivity
QVQLVESGGCLVQARGSLRLSCAASGSTFGTYAMGWYRQPPGKERELVAAIRWSGVSTYYADSVKGRFTISRDNAKNTVYLEMNSLKPEDTAVYYCAVALWVRGTYIYEYWGQGSQVTVSS	high polyreactivity
QVQLVESGGCLVQARGSLRLSCAASGSTFTYNTMGWYRQAPGKESELVAGITKSGGSTYYADSVKGRFTISRDKAKNTVYLQMNSLKPEDTAVYYCATSTSRRYGSRHNYWGQGTQVTVSS	high polyreactivity
QVQLVESGGCLVQEGGSLRLSCAASGSIFHDYIMGWYRQAPGKEMELVAAMSSGGSTYYADSVKGRFTISRDNAKNTVYLQMNSLKPEDTEVYYCAAKSRSQVYPHYYWGQGTQVTVSS	low polyreactivity
QVQLVESGGCLVQEGGSLRLSCDASGRTFLTYAMGWYRQAPGKERELVAAITDGDSTNYADSVKGRFTISRDNAKNNVYLQMNSLKPEDTAVYYCNADSLAYRYYYWGQGTQVTVSS	high polyreactivity
QVQLVESGGCLVQSGGSLRLSCAASGIILYYYAMGWYRQAPGKERELVAAISSGGNTYYADSVKGRFTISRDNAKNTVYLQMNSLKPEDPAVYFCASGTVIGGEYDYWGQGTQVTVSS	low polyreactivity
QVQLVESGGDLVQAGGSLRLSCAASGFTLTNYAMGWYRQATGKARELVAAITSSGGSTYYADSVKGRFTISRDNAKNTVYFQMNSLKPEDTAVYYCAAQGSRHFRWRYDYWGQGTQVTVSS	high polyreactivity
QVQLVESGGGFDQAGGSLRLSCAACGSIFWSNAMGWYRQAPGKERELVAAISSGGSTYADSVKGRLTISRDNAKNTVYLQMNSLKPEDNAVYYCNADVLYGDCYRGGYWGQGTQVTVSS	low polyreactivity
QVQLVESGGGFVHAGGSLRLSCAASGLIFGKYAMGWYRQAPGKERELVAAITSSGGGTYYADSVKGRFTISRDNAKNTVSLQMNSVKADDTAVYYCATGPDPKYDYRGQGTQVTVSS	high polyreactivity
QVQLVESGGGFVQAGGSHRLSCASSGRTFVLYTMGLYRQAPGKERELVAVGSTYYADSVKGRFTISRDNAKNTVYLQMNSLKPEDTALYYCNKPGNYLWRRSWDFYYWGQGTQVTVST	high polyreactivity
QVQLVESGGGFVQAGGSLRLICAAYRSIFSLYAMGWYRQAPGKERELVAHISSDGSTNYADSVKGRFTISRDNAKNTVYLQMNSLKPEDTAVYYCAKKPSSARYFTIGFDYWGQGTQVTVSS	low polyreactivity
QVQLVESGGGFVQAGGSLRLSCAASGFTFVGYAMGWYRQAPGKERELVAAITRRGGSTYYADSVKGRFTISRDNAKNTVYLQMNSLKPEDTAVYYCNKASYRISVPRYDYWGQGTQVTVSS	high polyreactivity
QVQLVESGGGFVQAGGSLRLSCAASGGIFGSYAIGWYRQAPGKERELVADITQSGGRTRNADSVKGRFTSSRDNAKNTVYLQKNSLKPEDTALYYCNAQDVDSGDDYDYWGQGTQVTVSS	low polyreactivity
QVQLVESGGGFVQAGGSLRLSCAASGLIFGRYGLGWYRQAPGKAREFVAAITQSGGATYYADSVKGRFTISRDNAKNTVYLQMNSLKPEDTAVYYCNAPIAYWRVHDKYGYWGQGTQLTVSS	low polyreactivity
QVQLVESGGGFVQAGGSLRLSCAASGLTFYGYAMGWYRQEPGKERELVAAISGSGARTYYADSVKGRFTISRDNAKNTVYFQMNSLKPEDTAVYYCAVRGSWYSEHNYWGQGTQVTVSS	high polyreactivity
QVQLVESGGGFVQAGGSLRLSCAASGRIFRYYAMGWSRQAPGKERELVAAINSGGSTKYADSVKGRFTISRDNAKNTVYFQMNSLNPEDTAVYYCNKDHAFSRYWYGGFDYWGQGTQVTVSS	high polyreactivity
QVQLVESGGGFVQAGGSLRLSCAASGRIRFYAMGWYRQAPGKERELVAAISSSGGSTYYADSVKGSFTISRDNAKNTVYLQMNSLKPEDTAVYYCAAAWYYLGTRAQLYDYWGQGTQVTVSS	low polyreactivity
QVQLVESGGGFVQAGGSLRLSCAASGRTFPRYAMGWYRQAPGKERELVAAITRGGGTNYADSVKGRFTISRDNAKNTVYLQMNSLKPEDTAVYYCNRALLYRGYKFDYWGQGTHVTVSS	high polyreactivity
QVQLVESGGGFVQAGGSLRLSCAASGRTFRWNAMGWYRQAPGKERELVAAISSGGSTYYADSVKGRFTISRDNAKNTVYLQMNSLKPEDTAVYYCAKTSFKYRWSYPVISMDYWGQATQVTVSS	high polyreactivity
QVQLVESGGGFVQAGGSLRLSCAASGSIFAYYVMGWYRPAPGTERELGAAITSVGSTNYADSVKGRFTISRDNAKNTVYLQMNSLKPQDTAVYYCADDQYQARYYYWGQGTQVTVSS	low polyreactivity

Sequence	polyreactivity (PSR sort gate)
QVQLVESGGGFVQAGGSLRLSCAASGSIFKRYAMGWYRQAPGKEWELVARISRRGGTYYADSVKGRFTISRDNAKNTVYLQINSLKPDDTAVYYCNANVIFADNNDRDYWGQGTQVTVSS	low polyreactivity
QVQLVESGGGFVQAGGSLRLSCAASGSIFVTNAMGWYRQAPGKDRELVAAISVSGGSTYYADSVKGRFTISRDNAKNTVYLQMNSLKPEDTAVYYCNTVRSPPGHDYWGLGTQVTVSS	low polyreactivity
QVQLVESGGGFVQAGGSLRLSCAASGSTFHDNAMGWYRQAPGKERELVAGISISGVSTFYADSVKGRFTISRDYAKNTVYLQMNSLKPEDTAVYYCTADDVSAYQRFDYWGQGTQVTVSS	low polyreactivity
QVQLVESGGGFVQAGGSLRLSCAASGSTFYHNAMGWYRPAPGKERELVAAISSGGSTHYADSVKGRFTISRDNEKNTVYLQKNILKPEDTAVYYCAKARPGFLYDHWGQGTQVTVSS	high polyreactivity
QVQLVESGGGFVQAGGSLRLSCASSGRTFHYYAMGWYRQAPGKERELVAAISFDGGTTYYADSVKGRFTISRDNAKNTVYLHMNSPKPEDTAVYYCNALRYRDRVGYNYWGQGTQVTVSS	high polyreactivity
QVQLVESGGGFVQAGGSLRLSCVPSGRTYEPYAMGWYRQAPGKERELVAAIRWSGDRTYYADSVKGRFTISRDFAKITVYLHMISLKPEDTAVYYCAADYRARRWGMDYWGQGTQVTVSS	high polyreactivity
QVQLVESGGGFVQAGGSLRLSGAASGSIFYCNAMGWYRQAPGKDRELVAAISYSGGSTYYADSVKGRFTLSRDTAKNTVYLQMNSLKPEDTAVSDGAAGPITLRYLTIYYTFDYWGQGTQVTVSS	high polyreactivity
QVQLVESGGGFVQAGGSLSLSCAASGSTFIRYVMGWYRQAPGKERELVASITISVGSTYADSVKGRFTISRDNAKNTVYLQMNRMNPEDTAVYYCAASTLKDIYLWFRVDYWGQGTQVTVSS	low polyreactivity
QVQLVESGGGIGQAGGSLRLSCAASGFTFSRYTMAWFRRAPGKERELVAAINRRGGSTYYADSVKGRFTISRDNAKNTVYLQMNCEKPEDTAVYYCAATYTVRSGNGIANDYWGQGTQVTVSS	high polyreactivity
QVQLVESGGGILQAGGSLRLSCAASGSIFGGNAMGWYRQAPGKERELVAAITSTVSTNYADSVKGRFTISRDNAKNTVYLQMNSLKPEDTAVYYCANDTSNVEGDYWGQGTQVTVSS	low polyreactivity
QVQLVESGGGILQARGSRPLICAASGSNLSYNAMGWYRQAPGKEREFVATITGTGGSTRYADSVKGRFTFSRDNAKNTVYLQMNSLNPEDTAVYYCATAAWWYYRIYHEFGFLGQGTQVTVSS	high polyreactivity
QVQLVESGGGIVEAGVSLRISCAASGSIFTKNAMVWYRPAPGKARELVAAISSGGSTYYADSEKGRFSISRDNAKNTVYLQMNSLKPEDTAVYYCARGASFYLKFYYWGQGTQVTVSS	high polyreactivity
QVQLVESGGGIVQAGCSLRLSCAPSGSTFKNNAMGWDRQAPGKEREFVASIYKRGGSTYYADSVKGRFTISRDNAKNTVYLQKKSLTPEDTAVYYCAKTYWSYGWSHGDYGEVDYWGQGTQVNVSS	high polyreactivity
QVQLVESGGGIVQAGCSLRLSSAASGFTFYGYAMGWYRQAPGKERELVAAMSWDGSSTYYADSVKGRFTISRDNAKNTVYLPMNSLKPEDTAVYYCAREYYYGYYYPIQSDYWGQGTQVTVSS	low polyreactivity
QVQLVESGGGIVQAGGILRLSCAASGRISVFNDMGWYRQAPGKERELVAAITSGGSTKYADSVKGRFTISRDNAKNTVYLQMNSLKPEDTAVYYCASLYQFHGKIWDGDYWGQGTQVNVSS	low polyreactivity
QVQLVESGGGIVQAGGILRLSCAASGRNLHGYTMGWYRQAPGKERELVATISSIGGSTYYADSVKGRFTISRDNAKNTVYLQMNSLKPEDTAVYYCAATRGRRYQSYYWGQGTQVTVSS	low polyreactivity
QVQLVESGGGIVQAGGILRLSSAASGRTFYSYTMGWSRQEPGKERELVAAINRGGSTYYADSVKGRFTISRDKAKNTVYLQMNSLKPEDTEVYYCAVGYAHSSNRRYYYKKTHGYWGQGTQVTVSS	low polyreactivity
QVQLVESGGGIVQAGGRLRLSCAASGFPSTLMLWDGIDRRLGKKGSWLPIISYNGGSTYYADSVKGRFTISRDNANNTVYLQMNSLKPVDTAVYYCYTAVGEYESDYWGQGTQVTVSS	low polyreactivity
QVQLVESGGGIVQAGGRLRLSCAASGSIFYYYAKGWYRQAPGTERELVASINSGVSTYYADSVKGRFTNSRDNAKNTVYLQMNSLKPVDTAVYYCAAPGHNLYGSWFSWTPDTYDYWGQGNQVTVSS	low polyreactivity
QVQLVESGGGIVQAGGSIRLSCAASGYTFAKYAMGWYRQAPGKERELVAAITFSDTSTYYADSVKGRFTISRDNAKNTVYLQMNSLKPEDTAVYYCAVVGPYYSRFGGRYYYWGQGTQVTVSS	low polyreactivity
